The record followed here is EP2014310A2 (Dyax Corporation, dated 2009).

Bridge positions count the residues as written; N and C are the ends. Side chains are listed from the residue outwards. I, II: the chains in the order shown. * marks the point of attachment. Biotin = O=C1N[C@H]2[C@H](CS[C@H]2CCCCC(=O)*)N1; ivDde = CC(C)CC(=C1C(=O)CC(C)(C)CC1=O)*; AEEA = NCCOCCOCC(=O)O

To fix the notation:
B1: SEQ ID NO:301 (peptide)
peptide: Ac-GDPDTCTMWGDSGRWYCFPADPGGGK-NH2
modifications: disulfide 6-17 (inferred); not fully specified
B2: SEQ ID NO:267 (peptide)
peptide: Ac-AGWLECYAEFGHCYNFGTGGGK-NH2
modifications: disulfide 6-13 (inferred); not fully specified
B3: Ac-GDWWECK(ivDde)REEYRNTTWCAWADPGGGK-NH2 (SEQ ID NO:366 having a blocked K) (peptide)
peptide: Ac-GDWWECK(ivDde)REEYRNTTWCAWADPGGGK-NH2
modifications: disulfide 6-17 (inferred)
B4: SEQ ID NO:306 (peptide)
peptide: Ac-AQAFPRFGGDDYWIQQYLRYTDGGK-NH2
modifications: not fully specified
B5: SEQ ID NO:305 (peptide)
peptide: Ac-AQEPEGYAYWEVITLYHEEDGDGGK-NH2
modifications: not fully specified
B6: dimer 25 (D25) (peptide)
peptide 1: Ac-AGPTWCEDDWYYCWLFGTGGGK-NH2
peptide 2: Ac-GDSRVCWEDSWGGEVCFRYDPGGGK-NH2
modifications: disulfide I:6-I:13, II:6-II:16 (inferred); not fully specified (some residues, bridges); printed as Ac-AGPTWCEDDWYYCWLFGTGGGK{Ac-GDSRVCWEDSWGGEVCFRYDPGGGK[JJ-Glut-NH(CH_2)4-(S)-CH(NH_2)C(=O)-]-NH_2}-NH_2; also: heterodimer, chain 2 C-terminal Lys joined to linker
B7: dimer 17 (D17) (peptide)
peptide 1: AQDWYYDEILGRGGRGGRGGK
peptide 2: VCWEDSWGGEVCFRYDPGGGK
modifications: not fully specified; N-terminal acetyl; C-terminal Lys(JJ-Glut)-NH2; N-terminal acetyl; contains J (8-amino-3,6-dioxaoctanoyl); C-terminal Lys joined to linker K
B8: SEQ ID NO:269 (peptide)
peptide: Ac-AGWIECYHPDGICYHFGTGGGK-NH2
modifications: disulfide 6-13 (inferred); not fully specified
B9: SEQ ID NO:307 (peptide)
peptide: Ac-AQGDYVYWEIIELTGATDHTPPGGK-NH2
modifications: not fully specified
B10: neutravidin-HRP complex of SEQ ID NO:356 and control peptide, dimer (peptide, part only; not given: control peptide and neutravidin-HRP, not shown: large carriers)
peptide: Ac-AQDWYYDEILSMADQLRHAFLSGGGGGK([AEEA-AEEA-Biotin])-NH2
modifications: also: neutravidin-HRP complex with biotinylated control peptide (dimer)
B11: neutravidin-HRP complex of SEQ ID NO:356 and control peptide, trimer (peptide, part only; not given: control peptide and neutravidin-HRP, not shown: large carriers)
peptide: Ac-AQDWYYDEILSMADQLRHAFLSGGGGGK([AEEA-AEEA-Biotin])-NH2
modifications: also: neutravidin-HRP complex with biotinylated control peptide (trimer)
B12: tetrameric complex of biotinylated SEQ ID NO:356 (JJ spacer) with neutravidin-HRP (peptide, part only; not given: neutravidin-HRP, not shown: large carriers)
peptide: Ac-AQDWYYDEILSMADQLRHAFLSGGGGGK([AEEA-AEEA-Biotin])-NH2
modifications: also: tetrameric complex with neutravidin-HRP
B13: SEQ ID NO:325 (peptide)
peptide: Ac-AQAPAWTFGTNWRSIQRVDSLTGGGGGK-NH2
modifications: not fully specified; also: C-terminal Lys fluorescein-labeled in some assay forms
B14: SEQ ID NO:326 (peptide)
peptide: Ac-AQEGWFRNPQEIMGFGDSWDKPGGGGGK-NH2
modifications: not fully specified; also: C-terminal Lys fluorescein-labeled in some assay forms
B15: SEQ ID NO:321 (peptide)
peptide: Ac-AGPGPCKGYMPHQCWYMGTGGGK-NH2
modifications: disulfide 6-14 (inferred); not fully specified; also: C-terminal Lys fluorescein-labeled in some assay forms
B16: SEQ ID NO:322 (peptide)
peptide: Ac-AGYGPCAEMSPWLCWYPGTGGGK-NH2
modifications: disulfide 6-14 (inferred); not fully specified; also: C-terminal Lys fluorescein-labeled in some assay forms
B17: SEQ ID NO:324 (peptide)
peptide: Ac-AGGHPCKGMLPHTCWYEGTGGGK-NH2
modifications: disulfide 6-14 (inferred); not fully specified; also: C-terminal Lys fluorescein-labeled in some assay forms
B18: SEQ ID NO:323 (peptide)
peptide: Ac-AGYGPCKNMPPWMCWHEGTGGGK-NH2
modifications: disulfide 6-14 (inferred); not fully specified; also: C-terminal Lys fluorescein-labeled in some assay forms
B19: phage isolate WVECNHKGLCREY (peptide)
peptide: WVECNHKGLCREY
B20: phage isolate GVECNHMGLCVSW (peptide)
peptide: GVECNHMGLCVSW
B21: phage isolate WIECNKDGKCWHY (peptide)
peptide: WIECNKDGKCWHY
B22: phage isolate GITCDELGRCVHW (peptide)
peptide: GITCDELGRCVHW
B23: phage isolate WIQCNHQGQCFHG (peptide)
peptide: WIQCNHQGQCFHG
B24: phage isolate WYWCEFYGVCSEE (peptide)
peptide: WYWCEFYGVCSEE
B25: phage isolate MPWCSEVTWGWCKLN (peptide)
peptide: MPWCSEVTWGWCKLN
B26: phage isolate IDFCKGMAPWLCADM (peptide)
peptide: IDFCKGMAPWLCADM
B27: phage isolate RGPCSGQPWHLCYYQ (peptide)
peptide: RGPCSGQPWHLCYYQ
B28: phage isolate PWTCWLEDHLACAML (peptide)
peptide: PWTCWLEDHLACAML
B29: phage isolate DHHCYLHNGQWICYPF (peptide)
peptide: DHHCYLHNGQWICYPF
B30: phage isolate NSHCYIWDGMWLCFPD (peptide)
peptide: NSHCYIWDGMWLCFPD

Chain of VEGF165 (Peprotech #100-20) (P15692 other isoform, or with tags, fused parts or gaps limits assumed): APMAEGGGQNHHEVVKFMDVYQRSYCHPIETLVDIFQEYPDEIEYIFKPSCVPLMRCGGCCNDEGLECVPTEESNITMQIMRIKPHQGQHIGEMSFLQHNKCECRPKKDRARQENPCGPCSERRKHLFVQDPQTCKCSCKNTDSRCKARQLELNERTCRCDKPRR
T2 sequence (P35968 20-764, chain 1 of 2): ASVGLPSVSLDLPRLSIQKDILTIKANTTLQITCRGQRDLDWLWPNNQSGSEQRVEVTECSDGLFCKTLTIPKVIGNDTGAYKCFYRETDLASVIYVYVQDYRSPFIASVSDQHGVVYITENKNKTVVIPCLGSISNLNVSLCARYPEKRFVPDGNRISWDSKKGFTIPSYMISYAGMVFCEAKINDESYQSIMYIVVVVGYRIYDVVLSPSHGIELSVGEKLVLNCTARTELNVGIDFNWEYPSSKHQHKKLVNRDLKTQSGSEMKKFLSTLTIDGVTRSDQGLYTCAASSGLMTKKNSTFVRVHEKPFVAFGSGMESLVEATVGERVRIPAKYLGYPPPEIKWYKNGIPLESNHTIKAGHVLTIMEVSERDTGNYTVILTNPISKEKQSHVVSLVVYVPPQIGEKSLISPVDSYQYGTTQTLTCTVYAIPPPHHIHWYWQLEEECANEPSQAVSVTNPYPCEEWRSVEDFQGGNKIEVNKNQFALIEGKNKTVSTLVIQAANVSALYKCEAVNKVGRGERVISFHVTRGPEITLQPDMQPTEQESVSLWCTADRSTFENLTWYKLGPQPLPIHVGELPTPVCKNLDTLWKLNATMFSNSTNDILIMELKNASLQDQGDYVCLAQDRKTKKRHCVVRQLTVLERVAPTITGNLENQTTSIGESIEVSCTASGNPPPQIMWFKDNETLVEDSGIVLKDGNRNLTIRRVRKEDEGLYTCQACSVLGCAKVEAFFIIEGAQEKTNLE
T2 sequence (P15692 other isoform, or with tags, fused parts or gaps, chain 2 of 2): as the sequence (P15692 other isoform, or with tags, fused parts or gaps limits assumed) above

The target of the first assay is KDR on human umbilical vein endothelial cells (HUVECs) (human, UniProt P35968 20-1356). Briefly: cell-based or functional assay.
Chain of KDR on human umbilical vein endothelial cells (HUVECs) (P35968 20-1356): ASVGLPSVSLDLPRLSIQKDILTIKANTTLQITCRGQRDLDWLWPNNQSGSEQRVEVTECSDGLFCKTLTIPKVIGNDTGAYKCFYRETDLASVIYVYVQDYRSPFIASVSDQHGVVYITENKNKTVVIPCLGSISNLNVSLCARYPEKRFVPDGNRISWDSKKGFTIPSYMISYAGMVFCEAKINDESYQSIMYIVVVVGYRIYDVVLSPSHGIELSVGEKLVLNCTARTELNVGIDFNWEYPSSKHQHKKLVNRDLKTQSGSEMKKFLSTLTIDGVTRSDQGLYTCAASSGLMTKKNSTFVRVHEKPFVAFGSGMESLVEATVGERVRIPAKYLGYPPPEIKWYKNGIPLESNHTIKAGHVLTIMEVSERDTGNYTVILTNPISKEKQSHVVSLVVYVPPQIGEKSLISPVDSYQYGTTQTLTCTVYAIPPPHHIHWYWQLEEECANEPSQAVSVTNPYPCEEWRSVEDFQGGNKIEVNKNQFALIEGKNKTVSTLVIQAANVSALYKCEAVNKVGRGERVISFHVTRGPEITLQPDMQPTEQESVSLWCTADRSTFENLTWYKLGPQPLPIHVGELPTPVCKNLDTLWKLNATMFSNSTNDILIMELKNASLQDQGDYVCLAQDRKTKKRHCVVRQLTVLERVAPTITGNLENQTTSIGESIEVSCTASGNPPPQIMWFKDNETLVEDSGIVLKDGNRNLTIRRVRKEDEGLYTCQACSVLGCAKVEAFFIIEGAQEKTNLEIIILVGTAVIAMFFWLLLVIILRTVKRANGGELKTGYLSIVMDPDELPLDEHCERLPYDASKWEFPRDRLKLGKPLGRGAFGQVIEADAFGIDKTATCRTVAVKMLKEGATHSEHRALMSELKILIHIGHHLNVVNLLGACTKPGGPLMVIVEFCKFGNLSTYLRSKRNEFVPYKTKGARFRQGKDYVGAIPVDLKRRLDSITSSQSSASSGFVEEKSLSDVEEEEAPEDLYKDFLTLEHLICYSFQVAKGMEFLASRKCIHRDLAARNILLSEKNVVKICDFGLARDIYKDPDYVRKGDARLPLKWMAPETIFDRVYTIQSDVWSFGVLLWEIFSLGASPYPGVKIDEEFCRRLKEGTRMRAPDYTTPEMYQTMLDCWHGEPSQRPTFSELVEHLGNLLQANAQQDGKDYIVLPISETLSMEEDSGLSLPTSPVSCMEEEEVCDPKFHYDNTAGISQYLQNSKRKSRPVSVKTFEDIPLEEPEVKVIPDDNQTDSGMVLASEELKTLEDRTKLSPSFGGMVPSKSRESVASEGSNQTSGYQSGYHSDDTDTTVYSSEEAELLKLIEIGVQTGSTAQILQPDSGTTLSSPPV
On to B1, for which the “VEGF-induced KDR phosphorylation in HUVECs” value is not below 50 % inhibition at 10 µM.
For the molecule B2, the “VEGF-induced KDR phosphorylation in HUVECs” value is not below 50 % inhibition at 10 µM.
The same measure, in the same setting: with B3 the figure was not below 50 % inhibition at 10 µM.
On the same count and under the same terms, under B4 stands not below 50 % inhibition at 10 µM; under B5, not below 50 % inhibition at 10 µM.
Consider B6, for which the “IC50, VEGF-induced migration of HUVECs” value was 5 nM.
The same measure, in the same setting: with B7 the figure was approximately 250 nM.
As to B8, the “VEGF-induced KDR phosphorylation in HUVECs” value is not below 50 % inhibition at 10 µM.
Still for that read-out and setting: under B9 stands not below 50 % inhibition at 10 µM.

For the next assay, the target named is KDR on transiently KDR-transfected 293H cells (human) (UniProt P35968). In words: neutravidin-HRP complexes, KDR minus mock 293H cells.
Chain of KDR on transiently KDR-transfected 293H cells (human) (P35968 20-1356): as above
Take B10: the ratio of specific binding to that of monomer (Dimer) was determined as 2.3.
B11: the ratio of specific binding to that of monomer (Trimer) is 5.7.
On to B12, for which the ratio of specific binding to that of monomer (Tetramer) came to 16.

For a further assay, the target named is T1, human KDR-Fc fusion (R&D Systems #357-KD-050) (human, UniProt P35968 20-764).
T1 construct: bought
T1 sequence (P35968 20-764): as the sequence (P35968 20-764, chain 1 of 2) above
Briefly: Biacore, KDR-Fc on CM5 chip, unlabeled peptide. For orientation: Surface plasmon resonance follows binding to a sensor surface in real time, without labels.
For orientation: Kd means the constant that tells how readily two partners part at equilibrium. Low readings indicate tighter binding, high ones weaker binding. B1 returned a Kd of 260 nM.
Still for that read-out and setting: under B4 stands 250 nM; under B5, 730 nM; under B8, 320 nM.

The target in a further assay is T1, human KDR-Fc fusion (R&D Systems …). Briefly: fluorescence anisotropy, fluorescein-labeled peptide. On the technique in general: Polarisation of emitted light reports the rotation of a fluorescent probe.
On to B1, for which the affinity, expressed as Kd, was 490 nM.
Still for that read-out and setting: under B4 stands 530 nM.
The same measure, in the same setting: under B5 stands 270 nM.
The same measure, in the same setting: with B8 the figure was 320 nM.
B9 showed a Kd of 180 nM.

Another assay has the same target. The assay is described as above. The source holds these as a separate data set.
On to B13, for which the binding result is “no binding”.
With B14, the binding result is “no binding”.

A further assay addresses VEGF165 (Peprotech #100-20) (UniProt P15692-4 27-191). The assay is described as above.
For B15, the binding result is “no binding”.
Still for that read-out and setting: with B16 the entry was “no binding”; with B17, “no binding”; with B13, “no binding”.
Same read-out and setting: with B14 the entry was “no binding”; with B18, “no binding”.

In the next assay the target is T1, human KDR-Fc fusion (R&D Systems …). Briefly: phage binding screen on KDR-Fc; class legend in paragraph 246.
On to B19, for which the binding result is recorded as “binds”.
With B20, the binding result is “binds”.
Same read-out and setting: with B21 the entry was “binds”.
With B22, the binding result is “binds”.
As for B23, the binding result is “binds”.
On the same count and under the same terms, with B24 the entry was “binds”.

The next assay has the same target. The assay is described as above. This is another data set of the same source.
On to B25, for which the binding result is listed as “binds”.
Still for that read-out and setting: with B26 the entry was “binds”.
Still for that read-out and setting: with B27 the entry was “binds”.
Still for that read-out and setting: with B28 the entry was “binds”.

The target is the same in another assay. Described as above. The source holds these as a separate data set.
For the molecule B29, the binding result is listed as “binds”.
On to B30, for which the binding result is on record as “binds”.

The next assay has as its target T2, KDR/VEGF complex (KDR-Fc mixed or saturated with VEGF) (human, UniProt P35968 20-764; P15692 27-191).
T2 construct: anisotropy: two fold molar excess of VEGF mixed with KDR-Fc; Biacore: KDR-Fc chip saturated with VEGF; also called KDR:VEGF165 complex
Briefly: Biacore, KDR-Fc chip saturated with VEGF, unlabeled peptide.
B15: the Kd amounted to 80 nM.
For B18, binding was put at a Kd of 420 nM.

Another assay concerns the target T1, human KDR-Fc fusion (R&D Systems …). In words: fluorescence anisotropy, fluorescein-labeled peptide, KDR-Fc alone.
As to B15, binding was put at a Kd of 400 nM.
As to B16, the Kd turned out to be 3700 nM.
Still for that read-out and setting: with B18 the figure was 1800 nM.

The next assay deals with T2, KDR/VEGF complex (KDR-Fc mixed or …). Briefly: fluorescence anisotropy, fluorescein-labeled peptide, KDR-Fc with two fold excess VEGF.
For the molecule B15, the Kd is 60 nM.
Regarding B16, binding was put at a Kd of 130 nM.
In turn, B17 had a dissociation constant (Kd) of 3300 nM.
On the same count and under the same terms, under B13 stands 840 nM; under B14, 1400 nM; under B18, 180 nM.
